Test [1] concerns the target light-activated rhodopsin (bovine rod outer segment membranes) (bovine) (UniProt P02699). In words: ELISA, MBP fusion protein on immobilised light-activated rhodopsin.
Test [2] has as its target human thrombin receptor (PAR1) (human) (UniProt P25116). In words: ELISA, purified MBP-Gαq on purified reconstituted PAR1 with thrombin receptor activating peptide.

In general, IC50 refers to the concentration needed to halve the response being measured.

Chain of light-activated rhodopsin (bovine rod outer segment membranes) (bovine) (P02699 whole entry, the tested form may be a part): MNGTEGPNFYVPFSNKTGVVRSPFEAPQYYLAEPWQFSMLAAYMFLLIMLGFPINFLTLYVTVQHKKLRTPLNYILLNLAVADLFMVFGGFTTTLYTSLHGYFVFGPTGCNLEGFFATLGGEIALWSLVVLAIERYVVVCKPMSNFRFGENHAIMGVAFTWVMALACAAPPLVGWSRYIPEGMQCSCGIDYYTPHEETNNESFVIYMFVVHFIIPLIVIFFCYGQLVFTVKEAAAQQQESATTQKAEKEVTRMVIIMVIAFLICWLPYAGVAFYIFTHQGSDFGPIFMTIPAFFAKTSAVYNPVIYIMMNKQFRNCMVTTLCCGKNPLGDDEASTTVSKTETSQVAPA
Chain of human thrombin receptor (PAR1) (human) (P25116 42-425): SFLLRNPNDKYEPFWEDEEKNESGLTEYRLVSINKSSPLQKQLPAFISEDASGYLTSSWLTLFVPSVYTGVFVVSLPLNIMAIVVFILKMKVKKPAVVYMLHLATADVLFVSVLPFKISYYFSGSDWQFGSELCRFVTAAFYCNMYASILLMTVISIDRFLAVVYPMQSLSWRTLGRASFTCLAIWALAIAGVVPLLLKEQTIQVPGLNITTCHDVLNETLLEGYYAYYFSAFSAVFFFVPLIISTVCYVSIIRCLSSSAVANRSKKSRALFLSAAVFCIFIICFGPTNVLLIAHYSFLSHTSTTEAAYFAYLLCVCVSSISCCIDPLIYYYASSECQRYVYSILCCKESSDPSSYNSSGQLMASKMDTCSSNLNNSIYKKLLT

The substance “MBP-Gαt340-350K341R fusion protein (pELM17)” returned an IC50 in test [1] of 6 µM. This lies in the single-digit micromolar range.

For the substance “maltose binding protein-Gαq (MBP-Gαq), native Gq peptide fusion”, in test [2], the IC50 was found to be 0.214 µM.
